Source: PMC2840394

Target: AL-12 variable domain (VL), amyloidogenic immunoglobulin kappa light chain of the κI O18/O8 germline (human (patient AL-12))
Test: crystal structure

Substance: AL-12 variable domain (VL), amyloidogenic immunoglobulin kappa light chain of the κI O18/O8 germline (domain or fragment)
- stoichiometry N: 2
